# From patent US7812117B2, “Vasostatin as marrow protectant” (The United States of America as represented by the …, priority 1998, dated 2010)
# Tests used:
# [1] = system: human umbilical vein-derived (HUVEC) endothelial cells; conditions: as previously reported (Pike et al., 1998; 1999); cited from earlier work
# murine bone marrow cells = experiment: Murine bone marrow cell number in culture (Owen's reagent formazan absorbance at 490 nm); format: cell-based, mouse
# Protocol: FIG. 7 is a series of bar graphs showing the effects of vaso on growth-factor induced proliferation of bone marrow cells with or without methotrexate. Bone marrow cells populations, obtained from the femural cavities of C57BL/6NCR mice (3.5 months of age), were cultured in 24 well tissue culture plates in culture medium alone or medium containing a mixture of the growth factors (GF) IL-3 (20 ng/ml), IL-6 (100 ng/ml) and Stem Cell Factor (100 ng/ml). Vaso was added to the cultures at concentrations ranging between 1.25 and 10 μg/ml. Methotrexate was added to the cultures at the concentration of 100 nM. FIG. 7A is a bar graph of cell proliferation as measured by ^3H thymidine incorporation during the final 22 hr of a 7-day culture. The results reflect the mean cpm of triplicate cultures. FIG. 7B is a bar graph of cell numbers measured as mean absorbance (490 nM) after conversion of Owen's reagent into colored formazan product (One Solution Reagent, Promega).
# FIG. 9 is a series of bar graphs showing that vaso increases bone marrow cell proliferation in vitro. Bone marrow cells populations, obtained from the femural cavities of C57BL/6NCR mice (8 weeks of age), were cultured in culture medium alone or in medium supplemented with a mixture of IL-3 (20 ng/ml), IL-6 (100 ng/ml) and Stem Cell Factor (SF, 100 ng/ml). […] FIG. 9A is a bar graph of cell proliferation as measured by ^3H thymidine incorporation during the final 20-23 hr of a 4, 5 or 6-day culture. FIG. 9B is a bar graph of cell number measured as absorbance (490 nM) after conversion of Owen's reagent into colored formazan product (One Solution Reagent, Promega).
# In the absence of exogenously added growth factors, vaso at the highest concentration used (10 μg/ml) had low level stimulatory effect (approximately 2-fold stimulation of background cpm).
# Stimulation of bone marrow cell proliferation by vaso was associated with an increased number of bone marrow cells, measured as absorbance from the conversion of Owen's reagent into a colored formazan product (One Solution Reagent, Promega, Madison. Wis.). […]
# [2] = system: CD34- mononuclear cell population; experiment: Proliferation of negatively selected human CD34- mononuclear cells; format: cell-based; conditions: Stem Cell Factor and Flt-3 ligand alone or in conjunction with vaso
# Protocol: The purified human CD34+ cells along with the negatively selected CD34− mononuclear cell population were cultured in RPMI 1640 medium containing 15% FBS. Human Stem Cell Factor (300 ng/ml) and Flt-3 ligand (300 ng/ml) were added to the culture medium. […] Thus, purified hematopoietic cells from both mouse and man proliferate in response to vaso.
# [3] = system: bone marrow hematopoietic cells; experiment: Radiation-induced toxicity in irradiated tumor-bearing BALB/c nu/nu mice (appearance, femural bone marrow histology); format: in vivo, mouse
# Protocol: This healthier appearance was due, in part, to the larger weight of mice treated with vaso compared to the controls.
# To examine this further, 7 week old BALB/c nu/nu mice were first irradiated with 400 rad. After 24 hr, the mice were incoculated s.c. with the human Burkitt lymphoma cell line CA46. One group of mice (n=12) was treated s.c. with the control protein maltose binding protein (MBP, 40 μg/mouse/day), whereas another group (n=12) was treated s.c. with MBP-vaso (60 μg/mouse/day). Some of the mice from each group were killed on day 15, whereas the other mice were kept for up to 2.5 months.
# [4] = system: peripheral white blood cells; experiment: Peripheral white blood cell counts after total body irradiation of C57BL/6N mice; format: in vivo; conditions: vaso 300 μg/mouse/day s.c.
# Protocol: In a subsequent experiment, groups of 8 week old C57BL/6N mice were irradiated with either 300 or 400 rad total body irradiation and treated the mice daily with s.c. inoculations of either buffer of vaso (300 μg/mouse/day). Peripheral white blood cell counts were obtained on days 5 and 9 post irradiation. On day 5, the total white cell count in the mice that had received 300 rad total body irradiation and had been treated with buffer was 1.2×10^3/mm^3 as opposed to 2.14×10^3/mm^3 in the mice treated with vaso. Also on day 5 post-irradiation, the total white cell count in the mice that had received 400 rad total body irradiation and had been treated with buffer was 0.66×10^3/mm^3 as opposed to 1.22×10^3/mm^3 in the mice treated with vaso. On day 9 post irradiation, the total white cell count in the mice that had received 400 rad total body irradiation and had been treated with buffer was 0.79×10^3/mm^3 as opposed to 1.37×10^3/mm^3 in the mice treated with vaso.
molecule,measurement,setting,value
"vaso: N-terminal domain of calreticulin (amino acids 1-180, SEQ ID NO:3); given as fusion protein with maltose binding protein, MBP-vaso (protein, Vasostatin) EPAVYFKEQFLDGDGWTSRWIESKHKSDFGKFVLSSGKFYGDEEKDKGLQTSQDARFYALSASFEPFSNKGQTLVVQFTVKHEQNIDCGGGYVKLFPNSLDQTDMHGDSEYNIMFGPDICGPGTKKVHVIFNYKGKNVLINKDIRCKDDEFTHLYTLIVRPDNTYEVKIDNSQVESGSLE",proliferation of primary cultures of HUVEC,[1],consistently inhibited the proliferation
same,number of cells in culture,murine bone marrow cells; vaso 10 μg/ml added to medium alone,increased only minimally
same,number of cells counted after 5 days of culture,"murine bone marrow cells; vaso 10 μg/ml, growth factors (IL-3, IL-6 and Stem Cell Factor) either alone or with etoposide 77 nM",increased significantly
same,number of living bone marrow cells in culture,murine bone marrow cells; vaso with methotrexate 100 nM and growth factors,increase in the number of living bone marrow cells
same,proliferation of CD34- cell population,[2],proliferated minimally
same,appearance of irradiated mice,"[3]; BALB/c nu/nu mice, 400-450 rad, injected s.c. with human tumor cell lines, vs buffer control",appeared healthier
same,femural bone marrow histology after 400 rad total body irradiation,[3]; MBP 40 μg/mouse/day or MBP-vaso 60 μg/mouse/day s.c. after irradiation,can protect the hematopoietic tissue from radiation-induced toxicity
same,"total white cell count, day 5 post irradiation","[4]; 300 rad total body irradiation, buffer 1.2×10^3",2.14×10^3 /mm^3
same,"total white cell count, day 5 post irradiation","[4]; 400 rad total body irradiation, buffer 0.66×10^3",1.22×10^3 /mm^3
same,"total white cell count, day 9 post irradiation","[4]; 400 rad total body irradiation, buffer 0.79×10^3",1.37×10^3 /mm^3
